In patent US8034904B2, “Anti-IGF-I receptor antibody” (Immunogen Inc., priority 2002, dated 2011):

Columns and labels:
[1] = system: MCF-7 cells; test: Cell cycle analysis of MCF-7 cells (propidium iodide, flow cytometry); assay type: cell-based, human; conditions: IGF-I 20 ng/mL with or without EM164 20 μg/mL, 1 day
Description: The EM164 antibody caused growth arrest of cells in G0/G1 phase of cell cycle and abrogated the mitogenic effect of IGF-I. For cell cycle analysis, MCF-7 cells were treated with IGF-I (20 ng/mL) in the presence or absence of EM164 (20 μg/mL) for 1 day and then analyzed by propidium iodide staining and flow cytometry.

[2] = biological target: T1, IGF-I receptor on MCF-7 cells (Homo sapiens, UniProt P08069); test: IGF-I displacement assay in MCF-7 cells; assay type: cell-based
T1 construct: human breast cancer MCF-7 cells, which expressed IGF-I receptor; endogenous in cells; host or cells: MCF-7 human breast cancer cells
Description: (or at 4° C.) for 1 to 2 h. […] (or at 4° C.) for 30 min to 4 h. Cells were then washed with PBS and lysed in lysis buffer containing 1% NP-40 at 4° C.

[3] = system: IGF-I receptor of goat fibroblast cells; test: Immunoprecipitation of IGF-I receptor from goat fibroblast cells; assay type: binding
Description: (§1) A Western blot of the EM164 antibody immunoprecipitate was detected using a rabbit polyclonal anti-IGF-I receptor beta chain (C-terminus) antibody (Santa Cruz Biotechnology) and a goat-anti-rabbit-IgG-antibody-horseradish peroxidase conjugate, followed by washes and enhanced chemiluminescence (ECL) detection.

[4] = system: MCF-7 (breast) cells; test: Growth and survival of MCF-7 cells (MTT assay); assay type: cell-based, human
Description: (§2) Several human tumor cell lines were tested in serum-free conditions for their growth and survival response to IGF-I. These cell lines were treated with EM164 antibody in the presence of IGF-I, IGF-II, or serum, and their growth and survival responses were measured using an MTT assay after 2-4 days. Approximately 1500 cells were plated in a 96-well plate in regular medium with serum, which was replaced with serum-free medium the following day (either serum-free RPMI medium supplemented with transferrin and BSA, or phenol-red free medium as specified by Dufourny, B. et al., 1997, J. Biol. Chem., 272, 31163-31171). After one day of growth in serum-free medium, the cells were incubated with about 75 μL of 10 μg/mL antibody for 30 min.-3 h, followed by the addition of 25 μL of IGF-I (or IGF-II or serum) solution to obtain a final concentration of 10 ng/mL IGF-I, or 20 ng/mL IGF-II, or 0.04-10% serum. In some experiments, the cells were stimulated first with IGF-I for 15 min before the addition of EM164 antibody, or both IGF-I and EM164 antibody were added together. The cells were then allowed to grow for another 2-3 days. A solution of MTT (3-(4,5)-dimethylthiazol-2-yl)-2,5-diphenyltetrazolium bromide; 25 μL of a 5 mg/mL solution in PBS) was then added and the cells were returned to the incubator for 2-3 h. The medium was then removed and replaced by 100 μL DMSO, mixed, and the absorbance of the plate was measured at 545 nm.

[5] = biological target: T2, IGF-I receptor of 3T3 cells (Mus musculus, UniProt Q60751); test: Immunoprecipitation of IGF-I receptor from 3T3 cells; assay type: binding
T2 construct: endogenous in cells; host or cells: 3T3 cells (mouse)
Description: as §1

[6] = system: Calu-6 non-small cell lung cancer cells; test: Growth and survival of Calu-6 cells (MTT assay); assay type: cell-based, human
Description: as §2

[7] = biological target: biotinylated human IGF-I receptor; test: ELISA binding titration (Kd) with biotinylated IGF-I receptor
Description: The wells were next washed with TBS-T buffer and incubated with goat-anti-mouse-IgGH+L-antibody-horseradish peroxidase conjugate (100 μL; 0.5 μg/mL in blocking buffer), followed by washes and detection using ABTS/H2O2 substrate at 405 nm. The value of Kd was estimated by non-linear regression for one-site binding.
A similar binding titration was carried out using the Fab fragment of EM164 antibody, prepared by papain digestion of the antibody as described by E. Harlow and D. Lane (“Using Antibodies: A Laboratory Manual”; 1999, Cold Spring Harbor Laboratory Press, New York).

[8] = system: A 549 cells; test: Growth and survival of A 549 cells (MTT assay); assay type: cell-based, human; conditions: 5-10 μg/mL EM164, 10 ng/mL IGF-I
Description: as §2, with “A solution of MTT (3-(4,5)-dimethylthiazol-2-yl)-2,5-diphenyltetrazolium bromide; 25 μL of a 5 mg/mL solution in PBS) was then added and the cells were returned to the incubator for 2-3 h.” left out

[9] = system: A-673 human rhabdomyosarcoma/Ewing's sarcoma xenografts; test: A-673 xenograft in mice; conditions: mouse, in vivo
[10] = biological target: T3, human insulin receptor (Homo sapiens, UniProt P06213); test: FACS binding to cells overexpressing human insulin receptor; conditions: EM164 50-100 nM
T3 construct: expressed in transfected cells; host or cells: 3T3-like cells of IGF-I receptor deficient mice
Description: Incubation of EM164 antibody (50-100 nM) in 100 μL cold FACS buffer (1 mg/mL BSA in Dulbecco's MEM medium) was performed using cells overexpressing IGF-I receptor and using cells overexpressing insulin receptor (2×10^5 cells/mL) in a round-bottom 96-well plate for 1 h. The cells were pelleted by centrifugation and washed with cold FACS buffer by gentle flicking, followed by incubation with goat-anti-mouse-IgG-antibody-FITC conjugate (100 μL; 10 μg/mL in FACS buffer) on ice for 1 h. The cells were pelleted, washed, and resuspended in 120 μL of 1% formaldehyde solution in PBS. The plate was analyzed using a FACSCalibur reader (BD Biosciences).

[11] = system: insulin receptor substrate-1 (IRS-1); test: IGF-I-stimulated IRS-1 phosphorylation in MCF-7 cells (ELISA, associated p85 PI-3-kinase); assay type: cell-based, human
Description: In FIG. 5, MCF-7 cells were treated with 5 μg/mL antibody (EM164 or IR3) in serum-free medium for 2 h, followed by stimulation with 50 ng/mL IGF-I for 10 min at 37° C. Anti-IRS-1 antibody (rabbit polyclonal; Upstate Biotechnology) was indirectly captured by incubation with coated goat-anti-rabbit-IgG antibody on an ELISA plate, which was then used to capture IRS-1 from the cell lysate samples by overnight incubation at 4° C. The wells were then incubated with mouse monoclonal anti-p85-PI-3-kinase antibody (Upstate Biotechnology) for 4 h, followed by treatment with goat-anti-mouse-IgG-antibody-HRP conjugate for 30 min. The wells were then washed and detected using ABTS/H2O2 substrate (FIG. 5).

T2 sequence (Q60751 31-1373): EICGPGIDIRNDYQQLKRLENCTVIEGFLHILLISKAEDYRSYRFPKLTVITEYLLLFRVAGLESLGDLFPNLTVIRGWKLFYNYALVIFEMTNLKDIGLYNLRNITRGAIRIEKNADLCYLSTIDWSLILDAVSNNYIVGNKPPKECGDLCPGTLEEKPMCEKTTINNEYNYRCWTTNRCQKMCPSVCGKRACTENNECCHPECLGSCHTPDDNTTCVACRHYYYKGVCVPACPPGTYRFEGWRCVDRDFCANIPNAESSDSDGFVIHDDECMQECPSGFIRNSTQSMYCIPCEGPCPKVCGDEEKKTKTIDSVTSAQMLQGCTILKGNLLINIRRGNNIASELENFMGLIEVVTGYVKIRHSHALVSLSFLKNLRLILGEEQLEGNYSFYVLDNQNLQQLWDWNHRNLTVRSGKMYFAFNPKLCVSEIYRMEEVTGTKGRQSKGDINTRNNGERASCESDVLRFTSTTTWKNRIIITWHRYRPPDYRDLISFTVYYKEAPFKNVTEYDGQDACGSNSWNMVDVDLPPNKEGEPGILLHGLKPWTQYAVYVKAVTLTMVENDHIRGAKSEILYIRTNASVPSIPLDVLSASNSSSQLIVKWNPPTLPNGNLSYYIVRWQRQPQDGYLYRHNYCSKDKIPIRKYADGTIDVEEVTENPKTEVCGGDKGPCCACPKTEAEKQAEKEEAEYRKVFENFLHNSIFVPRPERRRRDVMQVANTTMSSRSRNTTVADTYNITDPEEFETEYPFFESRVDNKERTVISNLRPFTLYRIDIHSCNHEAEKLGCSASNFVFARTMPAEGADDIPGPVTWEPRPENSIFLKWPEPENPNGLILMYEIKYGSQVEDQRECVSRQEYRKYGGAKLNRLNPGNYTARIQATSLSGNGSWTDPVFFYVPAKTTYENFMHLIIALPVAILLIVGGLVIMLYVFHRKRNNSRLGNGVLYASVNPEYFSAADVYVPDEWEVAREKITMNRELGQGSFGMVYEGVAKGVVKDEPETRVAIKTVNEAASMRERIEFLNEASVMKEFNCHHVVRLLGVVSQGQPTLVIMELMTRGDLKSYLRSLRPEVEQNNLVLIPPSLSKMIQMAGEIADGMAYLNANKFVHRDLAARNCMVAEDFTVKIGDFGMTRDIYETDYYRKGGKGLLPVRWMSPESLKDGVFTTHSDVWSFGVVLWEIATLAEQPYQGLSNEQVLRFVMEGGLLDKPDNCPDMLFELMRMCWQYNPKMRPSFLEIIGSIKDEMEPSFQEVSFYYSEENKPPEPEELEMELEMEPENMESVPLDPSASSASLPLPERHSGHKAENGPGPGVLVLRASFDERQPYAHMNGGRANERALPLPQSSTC

B1: EM164: murine anti-IGF-I receptor monoclonal antibody, IgG1 with kappa light chain, hybridoma ATCC PTA-4457; heavy SEQ ID NO:7, light SEQ ID NO:8 (antibody)
heavy: QVQLQQSGAELVKPGASVKLSCKASGYTFTSYWMHWVKQRPGQGLEWIGEINPSNGRTNYNEKFKRKATLTVDKSSSTAYMQLSSLTSEDSAVYYFARGRPDYYGSSKWYFDVWGAGTTVTVSS
light: DVLMTQTPLSLPVSLGDQASISCRSSQSIVHSNVNTYLEWYLQKPGQSPKLLIYKVSNRFSGVPDRFSGSGSGTDFTLRISRVEAEDLGIYYCFQGSHVPPTFGGGTKLEIKR
modifications: antibody heavy chain; antibody light chain
[1]
  cells in the G0/G1 phase: 77%
  cells in the S phase: 9%
[2]; 4° C., 2 h
  displacement of pre-bound biotinylated IGF-I: about 50%
[2]; 37° C., within 30 min
  displacement of pre-bound biotinylated IGF-I: 90%
[2]; 37° C., within 4 h
  displacement of pre-bound biotinylated IGF-I: ~100%
[3]
  binding to IGF-I receptor (immunoprecipitation): did not bind
[4]; 0.04-10% serum, FIG. 8
  inhibition of growth and survival of MCF-7 cells over a range of serum concentrations: equally effective
[4]; FIGS. 7 and 8
  IGF-1- or serum-stimulated growth and survival of MCF-7 cells: strongly inhibited
[4]; MCF-7 (breast), 5-10 μg/mL EM164
  % Inhibition by EM164 antibody of Growth/survival of cells in 1.25-10% serum: 85%
[4]; MCF-7 (breast), 5-10 μg/mL EM164, 10 ng/mL IGF-I
  Inhibition by EM164 antibody of IGF-I-stimulated growth in serum-free medium: 100%
[4]; MCF-7 cells, in the presence of serum
  inhibition of serum-stimulated growth: greater than 80%
[4]; separate experiment
  IGF-II-stimulated growth and survival of MCF-7 cells: strongly inhibited
[5]
  binding to IGF-I receptor (immunoprecipitation): did not bind
[6]; 5-10 μg/mL EM164, 10 ng/mL IGF-I
  Inhibition by EM164 antibody of IGF-I-stimulated growth in serum-free medium: 85%
[6]; 5-10 μg/mL EM164, MTT or colony formation assay
  % Inhibition by EM164 antibody of Growth/survival of cells in 1.25-10% serum: Yes
[7]; ELISA titration, non-linear regression for one-site binding, read-out: dissociation constant (Kd)
  Kd: 0.1 nM
[7]; strong binding signals after prolonged 1-2 day washes
  koff rate: very slow
[8]
  Inhibition by EM164 antibody of IGF-I-stimulated growth in serum-free medium: 80%
[9]
  growth of established A-673 xenografts: significant growth delay
[10]
  fluorescence shift (FACS): insignificant shift
[11]; 5 μg/mL antibody 2 h, 50 ng/mL IGF-I 10 min, compared with IR3
  inhibition of IGF-1-stimulated IRS-1 phosphorylation: more effective
[11]; in the absence of IGF-I
  agonistic activity on IRS-1 phosphorylation: did not show any agonistic activity
